Test results published in article PMC9803922, “Seawater fish use an electrogenic boric acid transporter, Slc4a11A, for boric acid excretion by the kidney” (The Journal of Biological Chemistry, 2022).

Substrate: OB(O)O
Experiment: two-electrode voltage clamp, boric acid-elicited currents in Xenopus oocytes
Format: cell-based, Takifugu obscurus
Conditions: total boric acid (B(OH)3 + B(OH)4-), Vh +60 mV, pH 7.5, 18 °C, Na+-independent electrogenic transport

B1: Slc4a11A (mfSlc4a11A) (Takifugu obscurus) (protein)
chain: MDMLSQEMELKDEKKEDYGEDSDAIHIYDTEAYISVSDPDRPGFGLLNTTRKYVKPMNFQEEVRAHRDLDNFLAQASILLDERATTLDEVLRRMLAHLLEEGRESCDPDEVMSSVFTDAGGKDFDVHLLSETIQGVTSTSTGIHYQQSWLCILTNLRSLQRRHVCIARLDRPQNWGVNCCEARYVIFILAPPRTKSTKTAIELGRTFATMFSDISFRQRLLETKTQEEFKQELLSYRQKLSTVQEKPVEEEEEDSDPRRGKALQCKDFLKAGKGVYRDLRRRLPLYPSDFTDGLTGKDRCLLKYTTTAIFLYIAILLPAIAFGSLNDESTRGEIDVQKTIVGQSIGGVIYALFAGSPLVIPLTTAPLAIFISVIRGICDDYDLDFDSFYACIGLWNSLFLILGGLFNVSLLMKLFKRSTEEVIALFISIAFVGDAVKGTVKIFQHFYRGPTLTTTNSTLVFQQLEGILNQTNNQTGNGLGEHGQADGHTLVFLPQSLVECTREMPILCLLLMLGTLWLGYTLYLIRRSPYLNDKIREVVSDCALPISVVICSFIGSYLFLNIKLPVFSVHDGPIFNYPPFDKLSGMSALSAVGLGFLLALLIFIDQNIVISLTHVPEHKLLKGTAFHWDLMLTGFINILMSCLGLPWMHAAFPHSSLHARQLAKVEQHVENGHLYTTIVSVKETRLTALAANILIGLSAFMLPIPLQWIPKPVLYGLFLYIAATSLDGNQMVDRMCLLLKEQTSYPPTHYVRRVPQRKVHFFTGVQMIQLIILCAFGMYPLPYMKMVFPLLMILLVPIRTSLLPKMIDAKYLDIMDAQHM
notes: full-length cDNA in pGEMHE, untagged, expressed in Xenopus laevis oocytes; 820 residues; C-terminal region antigen peptide PKMIDAKYLDIMDAQHM
Km: 6.5 ± 0.6 mM
